One block for each binder: values may come before it.
Experiments:
[1] = target: T1, truncated Mam protein (carboxy-terminal 32 amino acids of full-length Drosophila Mastermind deleted) fused to … (Drosophila, UniProt P21519 1-1562); experiment: yeast two-hybrid, lacZ reporter
T1 construct: also called truncated Mam fusion protein
Description: FIG. 13 is a graph showing Mam-Mip complex driven transcription in a two-hybrid analysis in yeast. The yeast strain EGY48 was co-transformed with a plasmid encoding a Mam-Gal4 DNA binding domain fusion protein and either a plasmid encoding Mip1, Mip30 or Mip6 fused to the E. coli B42 transactivation domain, or a control plasmid (pJG4-5). The DNA binding domain was derived from plasmid pEG202. […] In the presence of glucose, the expression of Mam is repressed and only a very low level of β-galactosidase activity is detected. In the presence of galactose, the expression of Mam is induced and a large increase in β-galactosidase activity is observed with those proteins that interact with Mam. Extracts were prepared and activity measured from equal number of cells.
To elucidate the function of Mam and its role in Notch signaling, proteins with which Mam interacts were identified. Complementary DNA encoding a truncated Mam protein, in which the carboxy-terminal 32 amino acids of full-length Mam were deleted, was fused to the Gal4 DNA-binding domain encoded by the yeast expression vector pEG202. A truncated Mam fusion protein was used because it elicited a lower autonomous transactivational response from yeast reporter genes than full-length Mam. […]

[2] = target: T2, Drosophila Mastermind (Mam) tagged at its amino terminus with the Flag epitope, expressed from pcDNA3 in 293T … (Drosophila, UniProt P21519 1-1594); experiment: co-expression in 293T cells, indirect immunofluorescence
T2 construct: Expressed inside transfected human 293T cells
Description: Mastermind and the entire intracellular domain of Drosophila Notch were co-expressed from pcDNA3 vectors (obtained from Invitrogen, Carlsbad, Calif.). Intracellular Notch was visualized with the 9C6 monoclonal antibody (Rebay, 1983, Thesis, Yale University) and a Cy-2-conjugated goat anti-mouse IgG secondary antibody. Flag epitope-tagged Mam was visualized with an anti-Flag polyclonal antibody and a Cy-5-conjugated goat anti-rabbit secondary antibody. Nuclei were counterstained with DAPI. In the absence of Mam, intracellular Notch is homogeneously distributed throughout the nucleoplasm; however, when co-expressed with Mam, intracellular Notch accumulates in nuclear bodies.

T2 sequence (P21519 other isoform, or with tags, fused parts or gaps): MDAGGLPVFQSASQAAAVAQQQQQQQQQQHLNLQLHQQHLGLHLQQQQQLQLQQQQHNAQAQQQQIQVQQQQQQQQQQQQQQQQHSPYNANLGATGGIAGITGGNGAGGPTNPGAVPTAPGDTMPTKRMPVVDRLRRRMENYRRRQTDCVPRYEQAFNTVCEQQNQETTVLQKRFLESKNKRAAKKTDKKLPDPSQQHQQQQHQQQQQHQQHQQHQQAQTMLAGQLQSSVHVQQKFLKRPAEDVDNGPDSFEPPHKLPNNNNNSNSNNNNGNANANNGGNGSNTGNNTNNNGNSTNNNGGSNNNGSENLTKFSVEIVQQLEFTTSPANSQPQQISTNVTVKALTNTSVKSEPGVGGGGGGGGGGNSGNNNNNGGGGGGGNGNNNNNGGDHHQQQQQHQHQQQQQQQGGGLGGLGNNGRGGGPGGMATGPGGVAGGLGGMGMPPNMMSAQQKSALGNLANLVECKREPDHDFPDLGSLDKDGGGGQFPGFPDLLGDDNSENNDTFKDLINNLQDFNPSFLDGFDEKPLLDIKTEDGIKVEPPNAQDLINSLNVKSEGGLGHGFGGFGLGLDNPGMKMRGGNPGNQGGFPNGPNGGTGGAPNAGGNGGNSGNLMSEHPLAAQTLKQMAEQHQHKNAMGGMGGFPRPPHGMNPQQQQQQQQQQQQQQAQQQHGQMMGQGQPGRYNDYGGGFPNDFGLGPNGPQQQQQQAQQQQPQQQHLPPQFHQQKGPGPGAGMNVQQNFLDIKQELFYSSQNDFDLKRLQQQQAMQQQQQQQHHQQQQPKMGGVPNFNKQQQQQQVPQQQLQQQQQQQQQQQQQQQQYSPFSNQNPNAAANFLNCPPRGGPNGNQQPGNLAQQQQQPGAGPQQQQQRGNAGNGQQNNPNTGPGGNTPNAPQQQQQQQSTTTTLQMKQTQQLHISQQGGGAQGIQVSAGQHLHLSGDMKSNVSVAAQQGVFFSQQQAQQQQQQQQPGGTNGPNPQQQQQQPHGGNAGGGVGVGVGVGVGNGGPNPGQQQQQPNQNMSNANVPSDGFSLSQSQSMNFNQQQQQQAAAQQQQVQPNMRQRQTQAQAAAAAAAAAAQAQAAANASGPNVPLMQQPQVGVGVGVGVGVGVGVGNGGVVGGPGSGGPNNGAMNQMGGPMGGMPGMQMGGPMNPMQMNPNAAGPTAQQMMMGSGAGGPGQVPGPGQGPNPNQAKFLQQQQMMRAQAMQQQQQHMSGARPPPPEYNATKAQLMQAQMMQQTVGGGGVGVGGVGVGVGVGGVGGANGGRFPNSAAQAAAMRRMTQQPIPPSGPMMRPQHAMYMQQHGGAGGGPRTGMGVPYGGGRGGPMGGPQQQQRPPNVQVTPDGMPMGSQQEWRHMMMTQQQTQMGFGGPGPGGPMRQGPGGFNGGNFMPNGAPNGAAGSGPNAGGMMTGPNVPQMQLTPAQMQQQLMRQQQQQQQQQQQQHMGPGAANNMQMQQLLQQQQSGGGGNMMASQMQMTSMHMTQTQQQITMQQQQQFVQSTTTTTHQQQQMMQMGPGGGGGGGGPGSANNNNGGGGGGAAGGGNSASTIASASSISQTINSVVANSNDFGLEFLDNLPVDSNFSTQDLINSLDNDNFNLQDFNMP
T1 sequence (P21519 other isoform, or with tags, fused parts or gaps limits assumed): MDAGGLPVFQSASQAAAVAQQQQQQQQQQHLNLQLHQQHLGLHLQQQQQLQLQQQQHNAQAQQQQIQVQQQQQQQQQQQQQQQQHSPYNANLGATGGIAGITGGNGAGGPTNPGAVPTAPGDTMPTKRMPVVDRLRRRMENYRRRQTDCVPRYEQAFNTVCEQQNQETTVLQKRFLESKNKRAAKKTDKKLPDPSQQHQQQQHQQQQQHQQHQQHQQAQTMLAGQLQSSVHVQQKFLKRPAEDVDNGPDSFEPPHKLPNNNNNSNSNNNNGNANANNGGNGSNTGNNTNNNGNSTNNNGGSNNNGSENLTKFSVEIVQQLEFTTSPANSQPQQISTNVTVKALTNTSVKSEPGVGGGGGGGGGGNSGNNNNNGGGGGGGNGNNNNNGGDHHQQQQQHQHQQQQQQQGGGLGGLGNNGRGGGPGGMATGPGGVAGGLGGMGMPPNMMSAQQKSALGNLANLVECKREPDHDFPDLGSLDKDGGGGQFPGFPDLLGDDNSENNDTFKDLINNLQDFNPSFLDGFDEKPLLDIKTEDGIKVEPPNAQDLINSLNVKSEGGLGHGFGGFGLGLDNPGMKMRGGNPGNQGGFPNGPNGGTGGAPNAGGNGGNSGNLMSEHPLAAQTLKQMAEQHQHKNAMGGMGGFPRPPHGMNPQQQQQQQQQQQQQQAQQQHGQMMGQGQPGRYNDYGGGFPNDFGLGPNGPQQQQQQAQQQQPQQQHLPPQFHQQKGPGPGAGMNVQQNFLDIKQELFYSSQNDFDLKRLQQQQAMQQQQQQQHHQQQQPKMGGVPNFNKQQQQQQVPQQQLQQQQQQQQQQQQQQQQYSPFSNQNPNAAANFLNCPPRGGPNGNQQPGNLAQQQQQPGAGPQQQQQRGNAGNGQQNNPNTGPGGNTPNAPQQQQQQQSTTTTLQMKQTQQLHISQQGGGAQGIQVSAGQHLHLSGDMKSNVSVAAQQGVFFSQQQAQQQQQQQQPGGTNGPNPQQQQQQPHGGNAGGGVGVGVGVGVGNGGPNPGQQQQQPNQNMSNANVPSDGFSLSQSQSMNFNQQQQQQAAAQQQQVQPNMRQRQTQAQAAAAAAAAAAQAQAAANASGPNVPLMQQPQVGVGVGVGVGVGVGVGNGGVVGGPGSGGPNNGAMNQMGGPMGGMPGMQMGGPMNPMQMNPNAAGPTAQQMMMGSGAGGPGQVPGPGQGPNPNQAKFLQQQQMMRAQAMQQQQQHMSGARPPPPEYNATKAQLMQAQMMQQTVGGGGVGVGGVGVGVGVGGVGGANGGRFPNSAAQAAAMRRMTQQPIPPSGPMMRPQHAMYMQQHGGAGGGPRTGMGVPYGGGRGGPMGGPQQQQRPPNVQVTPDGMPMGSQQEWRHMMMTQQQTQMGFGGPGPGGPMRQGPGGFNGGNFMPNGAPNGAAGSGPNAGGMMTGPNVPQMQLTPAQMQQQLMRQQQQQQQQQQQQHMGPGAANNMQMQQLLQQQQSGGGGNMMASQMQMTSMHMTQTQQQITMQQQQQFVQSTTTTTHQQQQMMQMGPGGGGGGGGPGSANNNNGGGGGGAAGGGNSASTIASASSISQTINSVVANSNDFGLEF

binding result [1]: binds
B1: Mip6 two-hybrid clone, amino-terminally truncated, fused to the E. coli B42 transactivation domain encoded by pJG4-5 (other, not shown: large carriers)
chain: PKTKQSTFVVSPKPEPKSPAVAFLQPSIPLRSSNQPQTVVGSSSTGRKPLNVGLTMEWTKKKFFSAASGIPQRRQNQIKQPYANIVSPIRTYTQKSGTAPLMSTFRPTSSDMLSTLAISELEQESRLCHPKALFATKDETPKSSEAESLIINGIDSAADLLPKKAYISSEIKHVVDERTPLPMPKVPQIQKYLNSAVEPTVMRHDGKMKMPGEAVRNPSSSHIPRRANHSLADLSLASGDVSLYTIRDAQKF

binding result [2]: binds
B2: entire intracellular domain of Drosophila Notch, expressed from pcDNA3 in 293T cells (receptor, UniProt P07207 1767-2703, looked up)
chain: QRKRAHGVTWFPEGFRAPAAVMSRRRRDPHGQEMRNLNKQVAMQSQGVGQPGAHWSDDESDMPLPKRQRSDPVSGVGLGNNGGYASDHTMVSEYEEADQRVWSQAHLDVVDVRAIMTPPAHQDGGKHDVDARGPCGLTPLMIAAVRGGGLDTGEDIENNEDSTAQVISDLLAQGAELNATMDKTGETSLHLAARFARADAAKRLLDAGADANCQDNTGRTPLHAAVAADAMGVFQILLRNRATNLNARMHDGTTPLILAARLAIEGMVEDLITADADINAADNSGKTALHWAAAVNNTEAVNILLMHHANRDAQDDKDETPLFLAAREGSYEACKALLDNFANREITDHMDRLPRDVASERLHHDIVRLLDEHVPRSPQMLSMTPQAMIGSPPPGQQQPQLITQPTVISAGNGGNNGNGNASGKQSNQTAKQKAAKKAKLIEGSPDNGLDATGSLRRKASSKKTSAASKKAANLNGLNPGQLTGGVSGVPGVPPTNSAAQAAAAAAAAVAAMSHELEGSPVGVGMGGNLPSPYDTSSMYSNAMAAPLANGNPNTGAKQPPSYEDCIKNAQSMQSLQGNGLDMIKLDNYAYSMGSPFQQELLNGQGLGMNGNGQRNGVGPGVLPGGLCGMGGLSGAGNGNSHEQGLSPPYSNQSPPHSVQSSLALSPHAYLGSPSPAKSRPSLPTSPTHIQAMRHATQQKQFGGSNLNSLLGGANGGGVVGGGGGGGGGVGQGPQNSPVSLGIISPTGSDMGIMLAPPQSSKNSAIMQTISPQQQQQQQQQQQQQHQQQQQQQQQQQQQQQQQLGGLEFGSAGLDLNGFCGSPDSFHSGQMNPPSIQSSMSGSSPSTNMLSPSSQHNQQAFYQYLTPSSQHSGGHTPQHLVQTLDSYPTPSPESPGHWSSSSPRSNSDWSEGVQSPAANNLYISGGHQANKGSEAIYI
notes: domain: entire intracellular domain; also called intracellular Notch

From patent US20050239064A1 (published 2005)
